Data reported in paper doi:10.1101/419911.

Tests used:
AP2M1 160-435 = AP2M1 160-435 (UniProt Q96CW1); experiment: isothermal titration calorimetry; conditions: reference: unphosphorylated peptide YMPMS; sites S616
[1] = molecular target: AP2M1 (residues 160-435) (human) (UniProt Q96CW1); experiment: ITC

UniProt Q96CW1, sequence (Q96CW1 160-435): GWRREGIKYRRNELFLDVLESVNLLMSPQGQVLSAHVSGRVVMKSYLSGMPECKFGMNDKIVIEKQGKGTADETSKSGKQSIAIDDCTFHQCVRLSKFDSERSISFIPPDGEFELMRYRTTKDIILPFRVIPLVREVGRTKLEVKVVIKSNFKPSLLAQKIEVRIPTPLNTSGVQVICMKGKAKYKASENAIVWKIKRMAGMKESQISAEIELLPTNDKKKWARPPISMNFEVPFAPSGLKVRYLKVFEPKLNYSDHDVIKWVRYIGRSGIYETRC

| Substance | KD (AP2M1 160-435) | Kd [1] [nM] |
| --- | --- | --- |
| IRS1 607-620 (from UniProt P35568) YMPMpS peptide (pS-IRS1) | stronger; reference 2.03 µM | – |
| IRS1 peptide YMPMpS (phospho-S616), pS-IRS1 | – | 280 |
| IRS1 peptide YMPMS (unphosphorylated) | – | 2030 |
